According to IntAct's records for PubMed 31515488:

B1: Beta-taxilin (Homo sapiens), Q8N3L3 (parent)
chain: MEANHSEQLSAERQSTPPGDSSSLPSHNGLEKEDGQDSPTPVQPPEKEASVHPDISEELNRQLEDIINTYGSAASTAGKEGSARASEQPENAESPDNEDGDCEETTEEAGREPVASGEPPTVKEPVSNKEQKLEKKILKGLGKEANLLMQNLNKLQTPEEKFDFLFKKYAELLDEHRTEQKKLKLLQKKQVQIQKEKDQLQGEHSRAILARSKLESLCRELQRHNKTLKEEALQRAREEEEKRKEITSHFQSTLTDIQGQIEQQSERNMKLCQENTELAEKLKSIIDQYELREEHLDKIFKHRELQQKLVDAKLEQAQEMMKEAEERHKREKEYLLNQAAEWKLQAKVLKEQETVLQAQLTLYSGRFEEFQSTLTKSNEVFATFKQEMDKTTKKMKKLEKDTATWKARFENCNKALLDMIEEKALRAKEYECFVMKIGRLENLCRALQEERNELHKKIRDAEISEKDDQSQHNSDEEPESNVSVDQEIDAEEVNSVQTAVKNLATAFMIIHHPESTPHQSKETQPEIGSSQESADAALKEPEQPPLIPSRDSESPLPPLTPQAEAEGGSDAEPPSKASNSPAGLGAETQCEGLPVGAQADQASWKPEAEASGQAPQAPTEASLQKMEADVPAPACAAEEHVAAMVPACEPSRQPPRAAAEELPVGASAGPQPRNVADTNLEGVD
partner: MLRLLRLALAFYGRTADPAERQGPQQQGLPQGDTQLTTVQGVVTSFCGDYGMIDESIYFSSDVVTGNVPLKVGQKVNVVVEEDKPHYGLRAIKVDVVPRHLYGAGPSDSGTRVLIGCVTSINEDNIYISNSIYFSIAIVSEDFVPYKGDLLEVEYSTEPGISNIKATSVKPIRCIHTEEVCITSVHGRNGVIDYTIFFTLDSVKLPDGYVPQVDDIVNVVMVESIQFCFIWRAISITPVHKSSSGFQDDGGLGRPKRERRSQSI
B2: Isoform 1 of Ras-related protein Rab-5C (Homo sapiens), P51148-1 (parent)
chain: MAGRGGAARPNGPAAGNKICQFKLVLLGESAVGKSSLVLRFVKGQFHEYQESTIGAAFLTQTVCLDDTTVKFEIWDTAGQERYHSLAPMYYRGAQAAIVVYDITNTDTFARAKNWVKELQRQASPNIVIALAGNKADLASKRAVEFQEAQAYADDNSLLFMETSAKTAMNVNEIFMAIAKKLPKNEPQNATGAPGRNRGVDLQENNPASRSQCCSN
partner: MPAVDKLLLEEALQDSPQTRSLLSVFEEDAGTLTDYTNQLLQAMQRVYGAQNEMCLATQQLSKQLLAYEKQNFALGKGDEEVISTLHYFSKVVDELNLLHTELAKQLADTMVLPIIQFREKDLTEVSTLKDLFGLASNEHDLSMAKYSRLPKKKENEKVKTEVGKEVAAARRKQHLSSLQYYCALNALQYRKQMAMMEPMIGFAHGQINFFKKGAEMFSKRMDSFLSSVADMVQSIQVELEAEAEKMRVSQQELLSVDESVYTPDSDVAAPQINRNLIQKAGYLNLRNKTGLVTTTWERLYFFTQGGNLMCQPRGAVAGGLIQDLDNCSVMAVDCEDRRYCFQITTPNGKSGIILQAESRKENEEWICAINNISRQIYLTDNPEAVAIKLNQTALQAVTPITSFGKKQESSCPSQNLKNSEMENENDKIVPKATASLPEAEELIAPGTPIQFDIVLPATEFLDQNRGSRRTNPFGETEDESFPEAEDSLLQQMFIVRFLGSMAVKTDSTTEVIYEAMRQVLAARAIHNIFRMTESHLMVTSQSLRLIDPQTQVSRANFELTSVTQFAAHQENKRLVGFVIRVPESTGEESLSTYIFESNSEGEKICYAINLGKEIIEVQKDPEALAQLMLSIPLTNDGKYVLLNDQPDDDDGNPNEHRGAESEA
B3: TBC1 domain family member 22B (Homo sapiens), Q9NU19 (parent)
chain: MAAENSKQFWKRSAKLPGSIQPVYGAQHPPLDPRLTKNFIKERSKVNTVPLKNKKASSFHEFARNTSDAWDIGDDEEEDFSSPSFQTLNSKVALATAAQVLENHSKLRVKPERSQSTTSDVPANYKVIKSSSDAQLSRNSSDTCLRNPLHKQQSLPLRPIIPLVARISDQNASGAPPMTVREKTRLEKFRQLLSSQNTDLDELRKCSWPGVPREVRPITWRLLSGYLPANTERRKLTLQRKREEYFGFIEQYYDSRNEEHHQDTYRQIHIDIPRTNPLIPLFQQPLVQEIFERILFIWAIRHPASGYVQGINDLVTPFFVVFLSEYVEEDVENFDVTNLSQDMLRSIEADSFWCMSKLLDGIQDNYTFAQPGIQKKVKALEELVSRIDEQVHNHFRRYEVEYLQFAFRWMNNLLMRELPLRCTIRLWDTYQSEPEGFSHFHLYVCAAFLIKWRKEILDEEDFQGLLMLLQNLPTIHWGNEEIGLLLAEAYRLKYMFADAPNHYRR
partner: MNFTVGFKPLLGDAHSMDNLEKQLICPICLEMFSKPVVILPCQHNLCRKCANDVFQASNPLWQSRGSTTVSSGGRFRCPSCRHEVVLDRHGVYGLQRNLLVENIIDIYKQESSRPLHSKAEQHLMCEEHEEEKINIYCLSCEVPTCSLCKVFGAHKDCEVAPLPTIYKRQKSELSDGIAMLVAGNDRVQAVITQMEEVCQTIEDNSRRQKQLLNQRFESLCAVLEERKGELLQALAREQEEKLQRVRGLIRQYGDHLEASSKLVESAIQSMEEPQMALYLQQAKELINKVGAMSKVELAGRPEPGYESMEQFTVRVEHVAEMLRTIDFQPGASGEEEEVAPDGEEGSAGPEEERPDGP
B4: Synaptotagmin-16 (Homo sapiens), Q17RD7 (parent)
chain: MVLAMASQDVQNFFQPFSSWISRVYEALQQAGDMLSASLVNISKQDSKLSDKLDQDLDNIQIQETYFEDEEQDNDWSQEDANSLFLEVDHFSCCNSDLQDSAQNSSPSLSQHAKDSCSTMSQWPNWASDDRKLPHVLSSIAEEEHHLEKQRSGLQHGFDSQLPGTLETVNGKKQVNSFGDDEELSTSSDSDEEVIKQFEISVSRSQSFRSVTSEKGKQTGLEQKPKFSRSLLTHGEDGTEVSACEDLDGASQRRYSENLSYGEDDHIPAHSQSPCERGDAKHHGTSHQESSVVQSLRRQSTEGSLEMETAFNSRGFEDSYATDSSSMWSPEEQDRTNLQVPSGVSEPISKCGDLDVIFEYRAASQKLTVTIVRAQGLPDKDRSGVNSWQVHVVLLPGKKHRGRTNIQRGPNPVFREKVTFAKLEPRDVAACAVRFRLYAARKMTRERMMGEKLFYLSHLHPEGEMKVTLVLEPRSNISSGGSPLSPSAVSHSDSTSSTQSLSHGGAPELLVGLSYNATTGRLSVEMIKGSHFRNLAVNRAPDTYGKLFLLNSVGQEMSRCKTSIRRGQPNPVYKETFVFQVALFQLSDVTLMISVYNRRTMKRKEMIGWIALGQNSSGEEEQDHWEEMKETKGQQICRWHTLLES
B5: Max-like protein X (Homo sapiens), Q9UH92 (parent)
chain: MTEPGASPEDPWVKASPVGAHAGEGRAGRARARRGAGRRGASLLSPKSPTLSVPRGCREDSSHPACAKVEYAYSDNSLDPGLFVESTRKGSVVSRANSIGSTSASSVPNTDDEDSDYHQEAYKESYKDRRRRAHTQAEQKRRDAIKRGYDDLQTIVPTCQQQDFSIGSQKLSKAIVLQKTIDYIQFLHKEKKKQEEEVSTLRKDVTALKIMKVNYEQIVKAHQDNPHEGEDQVSDQVKFNVFQGIMDSLFQSFNASISVASFQELSACVFSWIEEHCKPQTLREIVIGVLHQLKNQLY
partner: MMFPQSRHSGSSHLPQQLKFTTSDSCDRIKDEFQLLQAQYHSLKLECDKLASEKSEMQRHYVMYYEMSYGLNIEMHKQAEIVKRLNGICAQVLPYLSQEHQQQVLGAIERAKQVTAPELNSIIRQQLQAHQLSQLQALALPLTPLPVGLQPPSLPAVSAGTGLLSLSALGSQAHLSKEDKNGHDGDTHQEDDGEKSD
B6: Four and a half LIM domains protein 3 (Homo sapiens), Q13643 (parent)
chain: MSESFDCAKCNESLYGRKYIQTDSGPYCVPCYDNTFANTCAECQQLIGHDSRELFYEDRHFHEGCFRCCRCQRSLADEPFTCQDSELLCNDCYCSAFSSQCSACGETVMPGSRKLEYGGQTWHEHCFLCSGCEQPLGSRSFVPDKGAHYCVPCYENKFAPRCARCSKTLTQGGVTYRDQPWHRECLVCTGCQTPLAGQQFTSRDEDPYCVACFGELFAPKCSSCKRPIVGLGGGKYVSFEDRHWHHNCFSCARCSTSLVGQGFVPDGDQVLCQGCSQAGP
B7: DNA mismatch repair protein Mlh1 (Homo sapiens), P40692 (parent)
chain: MSFVAGVIRRLDETVVNRIAAGEVIQRPANAIKEMIENCLDAKSTSIQVIVKEGGLKLIQIQDNGTGIRKEDLDIVCERFTTSKLQSFEDLASISTYGFRGEALASISHVAHVTITTKTADGKCAYRASYSDGKLKAPPKPCAGNQGTQITVEDLFYNIATRRKALKNPSEEYGKILEVVGRYSVHNAGISFSVKKQGETVADVRTLPNASTVDNIRSIFGNAVSRELIEIGCEDKTLAFKMNGYISNANYSVKKCIFLLFINHRLVESTSLRKAIETVYAAYLPKNTHPFLYLSLEISPQNVDVNVHPTKHEVHFLHEESILERVQQHIESKLLGSNSSRMYFTQTLLPGLAGPSGEMVKSTTSLTSSSTSGSSDKVYAHQMVRTDSREQKLDAFLQPLSKPLSSQPQAIVTEDKTDISSGRARQQDEEMLELPAPAEVAAKNQSLEGDTTKGTSEMSEKRGPTSSNPRKRHREDSDVEMVEDDSRKEMTAACTPRRRIINLTSVLSLQEEINEQGHEVLREMLHNHSFVGCVNPQWALAQHQTKLYLLNTTKLSEELFYQILIYDFANFGVLRLSEPAPLFDLAMLALDSPESGWTEEDGPKEGLAEYIVEFLKKKAEMLADYFSLEIDEEGNLIGLPLLIDNYVPPLEGLPIFILRLATEVNWDEEKECFESLSKECAMFYSIRKQYISEESTLSGQQSEVPGSIPNSWKWTVEHIVYKALRSHILPPKHFTEDGNILQLANLPDLYKVFERC

Variants of: B1
Details: with ct55_human CT55, Q8WUE5

effect of a mutation on the interaction | Variant
with no effect | T523I
with no effect | T361A

Variants of: B2
Details: with dp13b_human APPL2, Q8NEU8

effect of a mutation on the interaction | Variant
with no effect | G93R

Variants of: B2
Details: with dp13b_human APPL2, Q8NEU8
Remark: another data set of the same source

effect of a mutation on the interaction | Variant
with no effect | R196Q
with no effect | N206S

Variants of: B3
Details: with tri54_human TRIM54, Q9BYV2

effect of a mutation on the interaction | Variant
with no effect | P177A

Variants of: B4
Details: with praf1_human RABAC1, Q9UI14

effect of a mutation on the interaction | Variant
with no effect | R131L
with no effect | A536T

Variants of: B4
Details: with rtn4_human RTN4, Q9NQC3

effect of a mutation on the interaction | Variant
with no effect | R131L
with no effect | A536T

Variants of: B4
Details: with atrap_human AGTRAP

effect of a mutation on the interaction | Variant
with no effect | R131L
with no effect | A536T

Variants of: B5
Details: with tle5_human TLE5, Q08117

effect of a mutation on the interaction | Variant
with no effect | Q223R

Variants of: B6
Details: with gata2_human GATA2, P23769

effect of a mutation on the interaction | Variant
with no effect | R226H

Variants of: B6
Details: with FAM90A1, Q86YD7

effect of a mutation on the interaction | Variant
with no effect | A103T

Variants of: B7
Details: with msh3_human MSH3, P20585

effect of a mutation on the interaction | Variant
with no effect | A441T
with no effect | V384D
with no effect | S406N

Variants of: B7
Details: with ima1_human KPNA2, P52292

effect of a mutation on the interaction | Variant
with no effect | A441T
with no effect | V384D
with no effect | S406N

Variants of: B7
Details: with psa1_human PSMA1, P25786

effect of a mutation on the interaction | Variant
with no effect | A441T
with no effect | V384D
with no effect | S406N
